# Where a chain is given by its changes, count along the chain named.
# B1: HspB6 Δ26–30 (natural protein, human, UniProt O14558 1-160, looked up)
# chain: MEIPVPVQPSWLRRASAPLPGLSAPQRFGEGLLEAELAALCPTTLAPYYLRAPSVALPVAQVPTDPGHFSVLLDVKHFSPEEIAVKVVGEHVEVHARHEERPDEHGFVAREFHRRYRLPPGVDPAAVTSALSPEGVLSIQAAPASAQAPPPAAAK
# notes: also called Δ HspB6; Δ mutant of HspB6; source: E. coli BL21(DE3) pLysS, purified (ammonium sulfate, HiTrap Phenyl-Sepharose, Superdex 200)
# B2: wild-type human small heat shock protein HspB5 (natural protein, UniProt P02511 1-175, looked up)
# chain: MDIAIHHPWIRRPFFPFHSPSRLFDQFFGEHLLESDLFPTSTSLSPFYLRPPSFLRAPSWFDTGLSEMRLEKDRFSVNLDVKHFSPEELKVKVLGDVIEVHGKHEERQDEHGFISREFHRKYRIPADVDPLTITSSLSSDGVLTVNGPRKQVSGPERTIPITREEKPAVTAAPKK
# notes: WT cDNA in pET22b or pET23a, parent of the full-size mutants; No tag is named; Forms large homooligomers; also called WT HspB5; source: E. coli BL21(DE3) pLysS, purified (ammonium sulfate, HiTrap Q, Superdex 200)
# B3: HspB5 R22A (natural protein, human, UniProt P02511 1-175, looked up)
# chain: B2 chain with R22A
# notes: also called R/A HspB5; R/A mutant of HspB5; source: E. coli BL21(DE3) pLysS, purified (ammonium sulfate, HiTrap Q, Superdex 200)
# B4: HspB5 Δ21–25 (natural protein, human, UniProt P02511 1-175, looked up)
# chain: MDIAIHHPWIRRPFFPFHSPQFFGEHLLESDLFPTSTSLSPFYLRPPSFLRAPSWFDTGLSEMRLEKDRFSVNLDVKHFSPEELKVKVLGDVIEVHGKHEERQDEHGFISREFHRKYRIPADVDPLTITSSLSSDGVLTVNGPRKQVSGPERTIPITREEKPAVTAAPKK
# notes: also called Δ HspB5; Δ mutant of HspB5; source: E. coli BL21(DE3) pLysS, purified (ammonium sulfate, HiTrap Q, Superdex 200)
# B5: wild-type human small heat shock protein HspB6, O14558 1-160 (natural protein)
# chain: MEIPVPVQPSWLRRASAPLPGLSAPGRLFDQRFGEGLLEAELAALCPTTLAPYYLRAPSVALPVAQVPTDPGHFSVLLDVKHFSPEEIAVKVVGEHVEVHARHEERPDEHGFVAREFHRRYRLPPGVDPAAVTSALSPEGVLSIQAAPASAQAPPPAAAK
# B6: HspB6 R27A (natural protein, human, UniProt O14558 1-160, looked up)
# chain: B5 chain with R27A
# notes: also called R/A HspB6; R/A mutant of HspB6; source: E. coli BL21(DE3) pLysS, purified (ammonium sulfate, HiTrap Phenyl-Sepharose, Superdex 200)
# What was measured:
# [1] = biological target: the molecule itself; experiment: SEC; isolated protein on Superdex 200 HR 10/30 in buffer B; apparent molecular weight against standards
# HspB6 R27A = biological target: B6; experiment: SEC; equimolar mixture (30–40 µM each), reduced, preincubated 1 h at 42 °C in buffer B (20 mM Tris-acetate, 150 mM NaCl, 0.1 mM EDTA, 15 mM mercaptoethanol); Superdex 200 HR 10/30; fractions on SDS gels; correlation coefficient and molar ratio from band intensities; details: both partners purified
# [2] = biological target: T1, wild-type human small heat shock protein HspB6 (human, UniProt O14558 1-160); experiment: as above; details: both partners purified
# T1 construct: HspB6, human, UniProt O14558; WT cDNA in pET22b or pET23a, parent of the full-size mutants; No tag is named; also called WT HspB6; source: E. coli BL21(DE3) pLysS, purified (ammonium sulfate, HiTrap Phenyl-Sepharose, Superdex 200)
# T1 sequence (looked up): B5 chain
# HspB6 Δ26–30 = biological target: B1; experiment: as above; details: both partners purified
# [3] = biological target: T2, wild-type human small heat shock protein HspB6 (human), O14558; experiment: SEC; isolated protein on Superdex 200 HR 10/30 in buffer B; apparent molecular weight against standards; details: remark: other sources report otherwise
# T2 chain: B5 chain
Binder,binding result [1],correlation coefficient [2],also measured
B1,binds,–,–
B2,binds,0.99,correlation coefficient (HspB6 R27A): 0.99; stoichiometry N [2]: ~2 HspB5/HspB6 molar ratio; correlation coefficient (HspB6 Δ26–30): 0.98
B3,binds,0.99,–
B4,binds,0.98,–
B5,–,–,stoichiometry N [3]: 2
B6,binds,–,–

# From paper PMC7352286, “The Heterooligomerization of Human Small Heat Shock Proteins Is Controlled by Conserved Motif Located in the N-Terminal Domain” (International Journal of Molecular Sciences, 2020)
